# Reference: patent US20240116985A1, “STAPLED PEPTIDES AND METHODS THEREOF” (priority 2020, published 2024)
# Starred links: 1 amine or outer side, 2 acyl side, 3 side chain; linkers in the order of their positions; H or OH if unused. Positions of bridges follow the written chain, without caps; N, C: chain ends. Non-standard residues stand in square brackets, D forms with d. Primed or numbered codes have the meaning given here. PyrS2(3) = (S)-3-amino-1-((pent-4-en-1-yloxy)carbonyl)pyrrolidine-3-carboxylic acid, stapling residue, C=CCCCOC(=O)N1CC[C@@](N[*:1])(C(=O)[*:2])C1; PyrS2″ = (S)-3-amino-1-((pent-4-en-1-yloxy)carbonyl)pyrrolidine-3-carboxylic acid (stapling residue), C=CCCCOC(=O)N1CC[C@@](N[*:1])(C(=O)[*:2])C1; B5(4) = 2,2-bis(4-pentenyl)glycine = 2-amino-2-(pent-4-en-1-yl)hept-6-enoic acid (stitching residue), C=CCCCC(CCCC=C)(N[*:1])C(=O)[*:2]; B5(5) = 2,2-bis(4-pentenyl)glycine, 2-amino-2-(pent-4-en-1-yl)hept-6-enoic acid (stitching residue), C=CCCCC(CCCC=C)(N[*:1])C(=O)[*:2]; B5(21) = 2-amino-2-(pent-4-en-1-yl)hept-6-enoic acid, bis(4-pentenyl)glycine (stitching residue), C=CCCCC(CCCC=C)(N[*:1])C(=O)[*:2]; PyrS2 = (S)-3-amino-1-((pent-4-en-1-yloxy)carbonyl)pyrrolidine-3-carboxylic acid, C=CCCCOC(=O)N1CC[C@@](N[*:1])(C(=O)[*:2])C1; 4TriA = (S)-2-amino-3-(1H-1,2,3-triazol-4-yl)propanoic acid, O=C([C@H](Cc1c[nH]nn1)N[*:1])[*:2]; B5″ = 2,2-bis(4-pentenyl)glycine, stitching residue, C=CCCCC(CCCC=C)(N[*:1])C(=O)[*:2]; Phe(3-COOH) = N[C@@H](Cc1cccc(C(=O)O)c1)C(=O)O; Phe(2-CF3) = N[C@@H](Cc1ccccc1C(F)(F)F)C(=O)O; Phe(2-Cl) = N[C@@H](Cc1ccccc1Cl)C(=O)O; Bta = N[C@@H](Cc1csc2ccccc12)C(=O)O; αAllylPro = C=CC[C@@]1(C(=O)O)CCCN1; tBuAla = CC(C)(C)C[C@H](N)C(=O)O; Gly(cBu) = N[C@H](C(=O)O)C1CCC1; 3Thi = N[C@@H](Cc1ccsc1)C(=O)O; S8 = C=CCCCCCC[C@](C)(N)C(=O)O; R5 = C=CCCC[C@@](C)(N)C(=O)O; hSer = N[C@@H](CCO)C(=O)O; Nle = CCCC[C@H](N)C(=O)O; Ac5c = NC1(C(=O)O)CCCC1; Aib = CC(C)(N)C(=O)O
# Biological target: full-length beta-Catenin (Uniprot ID P35222) (Homo sapiens (Human)) (UniProt P35222)
# Test: cell-based or functional assay
# Target sequence in this assay (P35222 2-781 limits assumed): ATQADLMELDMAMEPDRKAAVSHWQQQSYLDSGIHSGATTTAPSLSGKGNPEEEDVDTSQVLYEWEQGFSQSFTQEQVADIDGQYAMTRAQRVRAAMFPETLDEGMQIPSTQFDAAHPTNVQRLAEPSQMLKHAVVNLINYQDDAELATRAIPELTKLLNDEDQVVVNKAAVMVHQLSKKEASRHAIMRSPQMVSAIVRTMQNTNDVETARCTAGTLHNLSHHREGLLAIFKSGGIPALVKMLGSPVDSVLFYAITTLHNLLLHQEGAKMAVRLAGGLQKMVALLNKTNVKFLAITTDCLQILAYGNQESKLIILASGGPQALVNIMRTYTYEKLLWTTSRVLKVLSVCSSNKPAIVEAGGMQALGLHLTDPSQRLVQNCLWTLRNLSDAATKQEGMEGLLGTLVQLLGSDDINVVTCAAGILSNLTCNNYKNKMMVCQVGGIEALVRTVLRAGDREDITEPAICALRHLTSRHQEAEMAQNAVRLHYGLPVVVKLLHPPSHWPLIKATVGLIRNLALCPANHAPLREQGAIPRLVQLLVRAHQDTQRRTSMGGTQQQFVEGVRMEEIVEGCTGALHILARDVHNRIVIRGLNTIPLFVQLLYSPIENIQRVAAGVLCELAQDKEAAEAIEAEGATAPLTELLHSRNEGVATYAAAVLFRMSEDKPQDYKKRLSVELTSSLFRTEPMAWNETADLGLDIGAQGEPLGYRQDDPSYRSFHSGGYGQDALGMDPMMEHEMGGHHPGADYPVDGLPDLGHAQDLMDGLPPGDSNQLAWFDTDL
row,DLD1 4% Abs IC50,Binder
1,5600 nM,"Ac-[αAllylPro]D[tBuAla][B5(5)]D[Phe(3-COOH)]AAFL[PyrS2][Phe(2-CF3)][Bta]QLR-NH2 (staple 1-4, 4-11) [I-2393]"
2,700 nM,"Ac-[αAllylPro]D[tBuAla][B5(5)]D[Phe(3-COOH)]AAFL[PyrS2][Phe(2-CF3)][Bta]QL[Nle]-NH2 (staple 1-4, 4-11) [I-2391]"
3,1500 nM,"Ac-[αAllylPro]D[tBuAla][B5(5)]D[Phe(3-COOH)]AAFL[PyrS2″][Phe(2-CF3)][Bta]QL[Ac5c]-NH2 (staple 1-4, 4-11) [I-2387]"
4,1400 nM,"Ac-[αAllylPro]D[tBuAla][B5(5)]D[Phe(3-COOH)]AAFL[PyrS2][Phe(2-CF3)][Bta]QLN-NH2 (staple 1-4, 4-11) [I-2390]"
5,1200 nM,"Ac-[αAllylPro]D[tBuAla][B5(5)]D[Phe(3-COOH)]AAFL[PyrS2″][Phe(2-CF3)][Bta]QL[Gly(cBu)]-NH2 (staple 1-4, 4-11) [I-2388]"

# Biological target: Bcat-Halo (UniProt P35222)
# Sequence (P35222 whole entry): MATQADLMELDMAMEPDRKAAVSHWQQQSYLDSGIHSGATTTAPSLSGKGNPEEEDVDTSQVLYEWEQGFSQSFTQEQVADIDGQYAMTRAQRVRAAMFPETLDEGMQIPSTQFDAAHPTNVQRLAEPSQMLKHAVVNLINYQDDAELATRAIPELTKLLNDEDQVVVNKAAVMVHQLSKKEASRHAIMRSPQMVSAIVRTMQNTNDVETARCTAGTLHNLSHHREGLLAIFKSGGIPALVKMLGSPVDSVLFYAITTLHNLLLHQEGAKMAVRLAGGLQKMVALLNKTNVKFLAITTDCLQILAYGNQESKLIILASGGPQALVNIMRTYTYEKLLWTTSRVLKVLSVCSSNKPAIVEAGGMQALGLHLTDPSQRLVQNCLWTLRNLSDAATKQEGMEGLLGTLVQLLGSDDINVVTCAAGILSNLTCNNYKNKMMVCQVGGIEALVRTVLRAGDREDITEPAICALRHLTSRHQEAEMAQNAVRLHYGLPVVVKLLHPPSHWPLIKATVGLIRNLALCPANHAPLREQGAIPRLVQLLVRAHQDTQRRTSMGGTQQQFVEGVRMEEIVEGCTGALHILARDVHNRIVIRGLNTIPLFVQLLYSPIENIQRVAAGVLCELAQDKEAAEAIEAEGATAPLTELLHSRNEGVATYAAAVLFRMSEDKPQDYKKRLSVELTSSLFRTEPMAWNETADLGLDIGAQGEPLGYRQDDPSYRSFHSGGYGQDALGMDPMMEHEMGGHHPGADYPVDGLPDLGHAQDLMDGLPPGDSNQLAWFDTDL
# Test: NanoBRET Abs IC50, HEK293 cells; Bcat-Halo / TCF4-Luc engagement
row,IC50,Binder
1,> 20000 nM,"Ac-[αAllylPro]D[tBuAla][B5(5)]D[Phe(3-COOH)]AAFL[PyrS2][Phe(2-CF3)][Bta]QLR-NH2 (staple 1-4, 4-11) [I-2393]"
2,8200 nM,"Ac-[αAllylPro]D[tBuAla][B5(5)]D[Phe(3-COOH)]AAFL[PyrS2][Phe(2-CF3)][Bta]QL[Nle]-NH2 (staple 1-4, 4-11) [I-2391]"
3,7100 nM,"Ac-[αAllylPro]D[tBuAla][B5(5)]D[Phe(3-COOH)]AAFL[PyrS2″][Phe(2-CF3)][Bta]QL[Ac5c]-NH2 (staple 1-4, 4-11) [I-2387]"
4,9100 nM,"Ac-[αAllylPro]D[tBuAla][B5(5)]D[Phe(3-COOH)]AAFL[PyrS2][Phe(2-CF3)][Bta]QLN-NH2 (staple 1-4, 4-11) [I-2390]"
5,5700 nM,"Ac-[αAllylPro]D[tBuAla][B5(5)]D[Phe(3-COOH)]AAFL[PyrS2″][Phe(2-CF3)][Bta]QL[Gly(cBu)]-NH2 (staple 1-4, 4-11) [I-2388]"

# Biological target: full-length beta-Catenin (Uniprot ID P35222) (Homo sapiens (Human)) (UniProt P35222)
# Test: fluorescence polarization competition; full-length beta-catenin, competitor 5FAM-TCF4(10-53)
# Target sequence in this assay (P35222 2-781 limits assumed): as the sequence (P35222 2-781 limits assumed) above
row,IC50,Binder
1,61 nM,"Ac-[αAllylPro]D[tBuAla][B5(5)]D[Phe(3-COOH)]AAFL[PyrS2][Phe(2-CF3)][Bta]QLR-NH2 (staple 1-4, 4-11) [I-2393]"
2,110 nM,"Ac-[αAllylPro]D[tBuAla][B5(5)]D[Phe(3-COOH)]AAFL[PyrS2][Phe(2-CF3)][Bta]QL[Nle]-NH2 (staple 1-4, 4-11) [I-2391]"
3,120 nM,"Ac-[αAllylPro]D[tBuAla][B5(5)]D[Phe(3-COOH)]AAFL[PyrS2″][Phe(2-CF3)][Bta]QL[Ac5c]-NH2 (staple 1-4, 4-11) [I-2387]"
4,22 nM,"Ac-[αAllylPro]D[tBuAla][B5(5)]D[Phe(3-COOH)]AAFL[PyrS2][Phe(2-CF3)][Bta]QLN-NH2 (staple 1-4, 4-11) [I-2390]"
5,133 nM,"Ac-[αAllylPro]D[tBuAla][B5(5)]D[Phe(3-COOH)]AAFL[PyrS2″][Phe(2-CF3)][Bta]QL[Gly(cBu)]-NH2 (staple 1-4, 4-11) [I-2388]"

# Biological target: full-length beta-Catenin (Uniprot ID P35222) (Homo sapiens (Human)) (UniProt P35222)
# Test: fluorescence polarization competition; full-length beta-catenin; competitor 5FAM-TCF4(10-53) probe
# Target sequence in this assay (P35222 whole entry, one chain of several): as the sequence (P35222 whole entry) above
row,EC50,Binder
1,85 nM,"Ac-[αAllylPro]D[tBuAla][B5(4)]DDAAFL[S8][Phe(2-Cl)][Bta][hSer]-NH2 (staple 1-4, 4-11) [I-1196]"
2,87 nM,"Ac-[αAllylPro]D[tBuAla][B5(21)]DD[Aib][Aib]FL[PyrS2″][3Thi][Bta]Q-NH2 (staple 1-4, 4-11; also: later eluting HPLC peak (staple isomer composition)) [I-1180]"
3,66.5 nM,"Ac-[αAllylPro]D[tBuAla][B5(4)]DDAAFL[S8][Phe(2-Cl)][Bta]H-NH2 (staple 1-4, 4-11) [I-1194]"
4,29.5 nM,"Ac-[αAllylPro]D[tBuAla][B5″]DDAAFL[S8][3Thi][Bta]H-NH2 (staple 1-4, 4-11) [I-1195]"
5,38.5 nM,"Ac-[αAllylPro]D[tBuAla][B5(4)]DDAAFL[S8][3Thi][Bta]T-NH2 (staple 1-4, 4-11) [I-1191]"
6,144 nM,Ac-PD[tBuAla][R5]DDAAFN[PyrS2″][3Thi][Bta]Q-NH2 (staple 4-11) [I-1182]
7,226 nM,Ac-PD[tBuAla][R5]DDAAFL[PyrS2(3)][3Thi][Bta]Q-NH2 (staple 4-11) [I-1181]
8,78.5 nM,"Ac-[αAllylPro]D[tBuAla][B5(4)]DDAAFL[S8][3Thi][Bta][4TriA]-NH2 (staple 1-4, 4-11) [I-1193]"
9,94.5 nM,"Ac-[αAllylPro]D[tBuAla][B5(4)]DDAAFL[S8][Phe(2-Cl)][Bta]S-NH2 (staple 1-4, 4-11) [I-1189]"
10,81.5 nM,"Ac-[αAllylPro]D[tBuAla][B5(4)]DDAAFL[S8][Phe(2-Cl)][Bta][4TriA]-NH2 (staple 1-4, 4-11) [I-1192]"

# Biological target: full-length beta-Catenin (Uniprot ID P35222) (Homo sapiens (Human)) (UniProt P35222)
# Test: fluorescence polarization competition, displacement of 5FAM-TCF4 10-53 from full-length beta-catenin
# Target sequence in this assay (P35222 2-781 limits assumed): as the sequence (P35222 2-781 limits assumed) above
row,IC50,Binder
1,85 nM,"Ac-[αAllylPro]D[tBuAla][B5(4)]DDAAFL[S8][Phe(2-Cl)][Bta][hSer]-NH2 (staple 1-4, 4-11) [I-1196]"
2,87 nM,"Ac-[αAllylPro]D[tBuAla][B5(21)]DD[Aib][Aib]FL[PyrS2″][3Thi][Bta]Q-NH2 (staple 1-4, 4-11; also: later eluting HPLC peak (staple isomer composition)) [I-1180]"
3,66.5 nM,"Ac-[αAllylPro]D[tBuAla][B5(4)]DDAAFL[S8][Phe(2-Cl)][Bta]H-NH2 (staple 1-4, 4-11) [I-1194]"
4,29.5 nM,"Ac-[αAllylPro]D[tBuAla][B5″]DDAAFL[S8][3Thi][Bta]H-NH2 (staple 1-4, 4-11) [I-1195]"
5,38.5 nM,"Ac-[αAllylPro]D[tBuAla][B5(4)]DDAAFL[S8][3Thi][Bta]T-NH2 (staple 1-4, 4-11) [I-1191]"
6,144 nM,Ac-PD[tBuAla][R5]DDAAFN[PyrS2″][3Thi][Bta]Q-NH2 (staple 4-11) [I-1182]
7,297 nM,Ac-PD[tBuAla][R5]DDAAFL[PyrS2(3)][3Thi][Bta]Q-NH2 (staple 4-11) [I-1181]
8,78.5 nM,"Ac-[αAllylPro]D[tBuAla][B5(4)]DDAAFL[S8][3Thi][Bta][4TriA]-NH2 (staple 1-4, 4-11) [I-1193]"
9,94.5 nM,"Ac-[αAllylPro]D[tBuAla][B5(4)]DDAAFL[S8][Phe(2-Cl)][Bta]S-NH2 (staple 1-4, 4-11) [I-1189]"
10,81.5 nM,"Ac-[αAllylPro]D[tBuAla][B5(4)]DDAAFL[S8][Phe(2-Cl)][Bta][4TriA]-NH2 (staple 1-4, 4-11) [I-1192]"

# Biological target: full-length beta-Catenin (Uniprot ID P35222) (Homo sapiens (Human)) (UniProt P35222)
# Test: fluorescence polarization competition; 5FAM-TCF4(10-53) probe displaced from full-length beta-catenin
# Target sequence in this assay (P35222 2-781 limits assumed): as above
row,IC50,Binder
1,124 nM,"Ac-[αAllylPro]D[Nle][B5(5)]DDAAFL[PyrS2″][Phe(2-Cl)][Bta]L-NH2 (staple 1-4, 4-11; also: staple isomer, earlier eluting HPLC peak) [I-1420]"

# Biological target: beta-catenin (Homo sapiens (Human)) (UniProt P35222)
# Sequence (P35222 whole entry): as the sequence (P35222 whole entry) above
# Test: fluorescence polarization competition; full-length beta-catenin with 5FAM-TCF4(10-53) probe as competitor
row,EC50,Binder
1,124 nM,"Ac-[αAllylPro]D[Nle][B5(5)]DDAAFL[PyrS2″][Phe(2-Cl)][Bta]L-NH2 (staple 1-4, 4-11; also: staple isomer, earlier eluting HPLC peak) [I-1420]"
